{
  "source": "patent US20250076311A1",
  "about": "(Chugai, published 2025)",
  "key": {"[1]": {"molecular_target": "T1, cynomolgus monkey FcγRIIIaS extracellular domain with C-terminal His-tag (cynomolgus monkey, UniProt Q8SPW2 21-206 at identity 1.00))", "T1 construct": "also called cyno FcgRIIIaS; cynoFcγRIIIaS", "T1 chain": "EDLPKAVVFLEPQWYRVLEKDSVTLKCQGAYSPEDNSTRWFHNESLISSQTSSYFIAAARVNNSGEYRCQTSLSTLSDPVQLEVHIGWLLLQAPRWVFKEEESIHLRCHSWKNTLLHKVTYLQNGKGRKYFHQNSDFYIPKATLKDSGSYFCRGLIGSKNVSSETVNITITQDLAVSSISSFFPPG", "assay": "SPR, KD(parent SG1)/KD(variant)"}, "[2]": {"molecular_target": "T2, human FcγRIIb extracellular domain with C-terminal His-tag (human, UniProt P31994 43-217)", "T2 construct": "also called human FcgRIIb", "T2 sequence": "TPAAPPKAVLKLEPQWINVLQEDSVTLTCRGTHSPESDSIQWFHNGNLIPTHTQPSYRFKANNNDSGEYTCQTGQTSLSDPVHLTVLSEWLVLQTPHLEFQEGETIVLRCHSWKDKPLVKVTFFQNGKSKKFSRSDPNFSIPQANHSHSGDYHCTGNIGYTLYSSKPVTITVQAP", "assay": "SPR, KD(parent SG1)/KD(variant)"}, "[3]": {"molecular_target": "T3, cynomolgus monkey FcγRIIa2 extracellular domain with C-terminal His-tag (cynomolgus monkey)", "T3 construct": "also called cyno FcgRIIa2; cynoFcγRIIa2; not shown: His-tag added to C-terminus", "T3 chain": "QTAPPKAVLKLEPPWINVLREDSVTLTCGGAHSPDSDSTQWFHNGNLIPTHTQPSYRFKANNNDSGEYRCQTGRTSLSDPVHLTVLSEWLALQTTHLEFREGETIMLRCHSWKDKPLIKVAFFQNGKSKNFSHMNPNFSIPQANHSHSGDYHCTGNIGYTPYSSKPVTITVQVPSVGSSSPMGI", "assay": "SPR Biacore, antibody captured, FcgR analyte"}, "[4]": {"molecular_target": "T4, cynomolgus monkey FcγRIIIaS extracellular domain with C-terminal His-tag (cynomolgus monkey, UniProt A3RFZ7 21-206 (rhesus entry))", "T4 construct": "also called cyno FcgRIIIaS; cynoFcγRIIIaS; not shown: His-tag added to C-terminus", "assay": "SPR Biacore, antibody captured, FcgR analyte"}, "[5]": {"molecular_target": "T5, human FcγRIIaH extracellular domain with C-terminal His-tag (human, UniProt P12318 34-217)", "T5 construct": "also called human FcgRIIaH; FcγRIIa (type H); not shown: His-tag added to C-terminus", "T5 sequence": "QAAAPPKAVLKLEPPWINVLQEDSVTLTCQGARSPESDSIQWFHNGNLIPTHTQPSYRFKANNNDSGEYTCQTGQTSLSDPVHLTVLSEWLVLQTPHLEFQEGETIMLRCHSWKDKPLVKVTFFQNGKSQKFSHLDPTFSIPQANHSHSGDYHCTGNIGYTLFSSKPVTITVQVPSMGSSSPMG", "assay": "SPR Biacore, antibody captured, FcgR analyte"}, "[6]": {"molecular_target": "T6, human FcγRIIb extracellular domain with C-terminal His-tag (human, UniProt P31994 43-217)", "T6 construct": "also called human FcgRIIb; not shown: His-tag added to C-terminus", "T6 sequence": "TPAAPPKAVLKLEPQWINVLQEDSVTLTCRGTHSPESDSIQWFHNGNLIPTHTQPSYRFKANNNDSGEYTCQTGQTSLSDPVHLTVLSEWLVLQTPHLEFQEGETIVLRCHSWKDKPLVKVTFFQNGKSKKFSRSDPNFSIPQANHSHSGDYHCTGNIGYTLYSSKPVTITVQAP", "assay": "SPR Biacore, antibody captured, FcgR analyte"}, "[7]": {"molecular_target": "T7, cynomolgus monkey FcγRIIa3 extracellular domain with C-terminal His-tag (cynomolgus monkey)", "T7 construct": "also called cyno FcγRIIa3; FcgRIIa3", "T7 chain": "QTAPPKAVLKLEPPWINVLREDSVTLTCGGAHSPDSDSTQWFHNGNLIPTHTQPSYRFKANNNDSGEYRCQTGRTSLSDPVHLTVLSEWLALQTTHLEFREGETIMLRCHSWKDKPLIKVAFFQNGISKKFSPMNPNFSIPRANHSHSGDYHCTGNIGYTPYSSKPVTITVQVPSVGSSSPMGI", "assay": "SPR; KD of SG1 / KD of variant"}, "[8]": {"molecular_target": "T8, cynomolgus monkey FcγRIIIaS extracellular domain with C-terminal His-tag (cynomolgus monkey, UniProt Q8SPW2 21-206 at identity 1.00))", "T8 construct": "also called cyno FcγRIIIaS; FcgRIIIaS", "T8 chain": "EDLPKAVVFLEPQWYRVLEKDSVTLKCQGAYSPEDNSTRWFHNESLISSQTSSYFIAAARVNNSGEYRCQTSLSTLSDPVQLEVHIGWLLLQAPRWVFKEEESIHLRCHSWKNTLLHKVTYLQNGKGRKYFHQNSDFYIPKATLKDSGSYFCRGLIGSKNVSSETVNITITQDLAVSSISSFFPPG", "assay": "SPR; KD of SG1 / KD of variant"}},
  "data": [
    {"binder": "MS1032LO06-SG1012 (antibody, human IgG1, kappa, tied to rows r7/r25 by row order only; also called MS103205H795-SG1012; copies: 2 + 2) heavy: QVTLKESGPVLVKPTETLTLTCTVSGIDLSHDDISWVRQAPGKGLEWVGIISYAGSTYYASWAKGRLTISKDTSKNQVVLTMTNMDPVDTATYYCARGVPAYSHGGDLWGQGTLVTVSSASTKGPSVFPLAPSSKSTSGGTAALGCLVKDYFPEPVTVSWNSGALTSGVHTFPAVLQSSGLYSLSSVVTVPSSSLGTQTYICNVNHKPSNTKVDKKVEPKSCDKTHTCPPCPAPELLNGPSVFLFPPKPKDTLMISRTPEVTCVVVDVSEEDPEVKFNWYVDGVEVHNAKTKPREEQYNSTYRVVSVLTVLHQDWLNGKEYKCKVSNKALPKPIEKTISKAKGQPREPQVYTLPPSREEMTKNQVSLTCLVKGFYPSDIAVEWESNGQPENNYKTTPMVLDSDGSFFLYSKLTVDKSRWQQGNVFSCSVMHEALHAHYTQKSLSLSP light: DIVMTQSPATLSLSPGERATLSCTSSQSVYHANWLSWFQQKPGQPPKLLIYWASTLAYGVPSRFSGSGSGTDFTLTISSLQPEDAATYYCAGGYGGGRYAFGQGTKVEIKRTVAAPSVFIFPPSDEQLKSGTASVVCLLNNFYPREAKVQWKVDNALQSGNSQESVTEQDSKDSTYSLSSTLTLSKADYEKHKVYACEVTHQGLSSPVTKSFNRGEC", "values": [
      {"measurement": "KD fold (SG1 = 1)", "setting": "[1]", "value": 0.11, "unit": "fold"},
      {"measurement": "KD fold (SG1 = 1)", "setting": "[2]", "value": 0.5, "unit": "fold"}
    ]},
    {"binder": "M103205H795-MY179/M103202L889-SK1 (antibody, human IgG1, kappa, name in EU numbering, EU numbering) heavy: QVTLKESGPVLVKPTETLTLTCTVSGIDLSHDDISWVRQAPGKGLEWVGIISYAGSTYYASWAKGRLTISKDTSKNQVVLTMTNMDPVDTATYYCARGVPAYSHGGDLWGQGTLVTVSSASTKGPSVFPLAPSSKSTSGGTAALGCLVKDYFPEPVTVSWNSGALTSGVHTFPAVLQSSGLYSLSSVVTVPSSSLGTQTYICNVNHKPSNTKVDKKVEPKSCDKTHTCPPCPAPELLNGPSVFLFPPKPKDTLMISRTPEVTCVVVDVSEEDPEVKFNWYVDGVEVHNAKTKPREEQYNSTYRVVSVLTVLHQDWLNGKEYKCKVSNKALPAPIEKTISKAKGQPREPQVYTLPPSREEMTKNQVSLTCLVKGFYPSDIAVEWESNGQPENNYKTTPRVLDSDGSFFLYSKLTVDKSRWQQGNVFSCSVMHEALHNHYTQKSLSLSP light: DIVMTQSPATLSLSPGERATLSCTSSQSVYHANWLSWFQQKPGQPPKLLIYWASTLAYGVPSRFSGSGSGTDFTLTISSLQPEDAATYYCAGGYGGGRYAFGQGTKVEIKRTVAAPSVFIFPPSDEQLKSGTASVVCLLNNFYPREAKVQWKVDNALQSGNSQESVTEQDSKDSTYSLSSTLTLSKADYEKHKVYACEVTHQGLSSPVTKSFNRGEC", "values": [
      {"measurement": "KD fold (SG1 = 1)", "setting": "[3]", "value": 2.8, "unit": "fold"},
      {"measurement": "KD fold (SG1 = 1)", "setting": "[4]", "value": 0.13, "unit": "fold"},
      {"measurement": "Kd", "setting": "[4]", "value": 2700, "unit": "nM"},
      {"measurement": "Kd", "setting": "[5]", "value": 1100, "unit": "nM"},
      {"measurement": "Kd", "setting": "[6]", "value": 1200, "unit": "nM"}
    ]},
    {"binder": "M103205H795-MY227 (heavy chain) with M103202L889-SK1 (light chain) (antibody, human IgG1, kappa, name in EU numbering, Substitutions introduced into M103205H795-SG1; positions in EU numbering) heavy: QVTLKESGPVLVKPTETLTLTCTVSGIDLSHDDISWVRQAPGKGLEWVGIISYAGSTYYASWAKGRLTISKDTSKNQVVLTMTNMDPVDTATYYCARGVPAYSHGGDLWGQGTLVTVSSASTKGPSVFPLAPSSKSTSGGTAALGCLVKDYFPEPVTVSWNSGALTSGVHTFPAVLQSSGLYSLSSVVTVPSSSLGTQTYICNVNHKPSNTKVDKKVEPKSCDKTHTCPPCPAPELLGYPSVFLFPPKPKDTLMISRTPEVTCVVVDVSDEDPEVKFNWYVDGVEVHNAKTKPREEQYNSTYRVVSVLTVLHQDWLNGKEYKCKVSNKALPKPIEKTISKAKGQPREPQVYTLPPSREEMTKNQVSLTCLVKGFYPSDIAVEWESNGQPENNYKTTPKVLDSDGSFFLYSKLTVDKSRWQQGNVFSCSVMHEALHNHYTQKSLSLSP light: DIVMTQSPATLSLSPGERATLSCTSSQSVYHANWLSWFQQKPGQPPKLLIYWASTLAYGVPSRFSGSGSGTDFTLTISSLQPEDAATYYCAGGYGGGRYAFGQGTKVEIKRTVAAPSVFIFPPSDEQLKSGTASVVCLLNNFYPREAKVQWKVDNALQSGNSQESVTEQDSKDSTYSLSSTLTLSKADYEKHKVYACEVTHQGLSSPVTKSFNRGEC", "values": [
      {"measurement": "KD fold (SG1 = 1)", "setting": "[7]", "value": 6.8, "unit": "fold"},
      {"measurement": "KD fold (SG1 = 1)", "setting": "[8]", "value": 0.09, "unit": "fold"}
    ]}
  ]
}
